Results published in publication PMC5100581.

Target: His-tagged Gins51 wild type (Thermococcus kodakaraensis)
Experiment: SPR

GAN mutant F55A/L57A (enzyme) showed a Kd of 230 nM.
